Assay results published in US20180185450A1 (Sanofi, published 2018).
Numbered stars: 1 amine (or outer) side, 2 acyl side, 3 side chain; on linkers, the order of the positions; unused ones are H or OH. Square brackets hold non-standard residues; d marks the D form. Side chains are listed from the residue outwards. Ends that are not written are not given here. γGlu = O=C(O)[C@H](CCC(=O)[*:2])N[*:1]; x53 = not defined here; x70 = not defined here; Aib = CC(C)(N)C(=O)O

Biological target: T1, human GLP-1 receptor (human, UniProt P43220 24-463)
Test: cell-based or functional assay

Binder	EC50 hGLP-1R (cAMP) [nM]
HXQGTFTSDLSKQMESRRAQDFIEWLKAGGPSSGAPPPS (dSer at 2; C-terminal NH2) [SEQ ID NO: 184]	0.0857
HXQGTFTSDLSKQMDSRRAQDFIEWLKKGGPSSGAPPPS (dSer at 2; C-terminal NH2) [SEQ ID NO: 186]	0.102
HXQGTFTSDLSKQMDSRRAQDFIEWLKNGGPSSGAPPPS (Aib at 2; C-terminal NH2) [SEQ ID NO: 182]	0.0058
HXQGTFTSDLSKQKDSRRAQDFIEWLKNGGPSSGAPPPS (dSer at 2; C-terminal NH2) [SEQ ID NO: 183]	1.02
HXQGTFTSDLSKQMDSRRAQDFIEWLKRGGPSSGAPPPS (dSer at 2; C-terminal NH2) [SEQ ID NO: 185]	0.0757
HXQGTFTSDLSKQKESRRAQDFIEWLKAGGPSSGAPPPS (dSer at 2; K(Ac) at 14; C-terminal NH2) [SEQ ID NO: 194]	0.159

Biological target: T2, human glucagon receptor (human, UniProt P47871 26-477)
T2 sequence (P47871 26-477): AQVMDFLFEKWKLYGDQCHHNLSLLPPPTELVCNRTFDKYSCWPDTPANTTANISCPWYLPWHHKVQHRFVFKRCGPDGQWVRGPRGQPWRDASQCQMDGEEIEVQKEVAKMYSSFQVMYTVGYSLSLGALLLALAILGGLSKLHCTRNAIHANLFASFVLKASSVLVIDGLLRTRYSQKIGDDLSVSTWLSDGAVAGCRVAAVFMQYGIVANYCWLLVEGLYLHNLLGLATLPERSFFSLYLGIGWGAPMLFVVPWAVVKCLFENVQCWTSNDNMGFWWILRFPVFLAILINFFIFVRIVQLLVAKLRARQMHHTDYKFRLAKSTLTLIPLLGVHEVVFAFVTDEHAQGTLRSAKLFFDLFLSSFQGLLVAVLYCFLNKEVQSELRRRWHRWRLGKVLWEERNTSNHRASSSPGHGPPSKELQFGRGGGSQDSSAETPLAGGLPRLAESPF
Test: cell-based or functional assay

Binder	EC50 hGlucagon-R (cAMP) [nM]
HXQGTFTSDLSKQKDSRRAQDFIEWLKNGGPSSGAPPPS (dSer at 2; K(γE-x53) at 14; C-terminal NH2) [SEQ ID NO: 97]	0.0012
HXQGTFTSDLSKQMESRRAQDFIEWLKAGGPSSGAPPPS (dSer at 2; C-terminal NH2) [SEQ ID NO: 184]	0.991
HXQGTFTSDLSKQMDSRRAQDFIEWLKKGGPSSGAPPPS (dSer at 2; C-terminal NH2) [SEQ ID NO: 186]	0.59
HXQGTFTSDLSKQMDSRRAQDFIEWLKNGGPSSGAPPPS (Aib at 2; C-terminal NH2) [SEQ ID NO: 182]	0.419
HXQGTFTSDLSKQKDSRRAQDFIEWLKNGGPSSGAPPPS (dSer at 2; C-terminal NH2) [SEQ ID NO: 183]	0.916
HXQGTFTSDLSKQMDSRRAQDFIEWLKRGGPSSGAPPPS (dSer at 2; C-terminal NH2) [SEQ ID NO: 185]	0.262
HXQGTFTSDLSKQXDSKAAQDFIEWLKAGGPSSGAPPPS (dSer at 2; Nle at 14; C-terminal NH2) [SEQ ID NO: 192]	0.478
HXQGTFTSDLSKQKESRRAQDFIEWLKAGGPSSGAPPPS (dSer at 2; K(Ac) at 14; C-terminal NH2) [SEQ ID NO: 194]	1.29

Biological target: T1, human GLP-1 receptor
Test: cell-based or functional assay
Remark: another data set of the same source

Binder	EC50 hGLP-1R (cAMP) [nM]
H[Aib]QGTFTSDLSKQK([γGlu-x53])DSKAAQDFIEWLKAGGPSSGAPPPS-NH2 (reading uncertain) [SEQ ID NO: 31]	0.0017
H[Aib]QGTFTSDLSKQK(x53)ESQAAQDFIEWLKAGGPSSGAPPPS-NH2 (reading uncertain) [SEQ ID NO: 43]	0.0041
H[Aib]QGTFTSDLSKQK(x53)ESRRAQDFIEWLKAGGPSSGAPPPS-NH2 (reading uncertain) [SEQ ID NO: 5]	0.011
H[Aib]QGTFTSDLSKQK([γGlu-x53])ESQAAQEFIEWLKAGGPSSGAPPPS-NH2 (reading uncertain) [SEQ ID NO: 38]	0.0029
H[Aib]QGTFTSDLSKQK([γGlu-x53])ESQAAQDFIEWLKAGGPSSGAPPPS-NH2 (reading uncertain) [SEQ ID NO: 36]	0.0027
H[Aib]QGTFTSDLSKQK([γGlu-x53])ESKAAQDFIEWLKAGGPSSGAPPPS-NH2 (reading uncertain) [SEQ ID NO: 25]	0.0042
H[Aib]QGTFTSDLSKQK([γGlu-x70])ESQAAQDFIEWLKAGGPSSGAPPPS-NH2 (reading uncertain) [SEQ ID NO: 41]	0.0033
H[Aib]QGTFTSDLSKQK(x53)ESKAAQDFIEWLKAGGPSSGAPPPS-NH2 (reading uncertain) [SEQ ID NO: 33]	0.0112
HXQGTFTSDLSKQKDSRRAQDFIEWLKNGGPSSGAPPPS (dSer at 2; K(γE-x53) at 14; C-terminal NH2) [SEQ ID NO: 97]	0.0035
HXQGTFTSDLSKQKDEQAAQDFIEWLKAGGPSSGAPPPS (dSer at 2; K(γE-x53) at 14; C-terminal NH2) [SEQ ID NO: 34]	0.0015
HXQGTFTSDLSKQKESQAAQDFIEWLKAGGPSSGAPPPS (dSer at 2; K(γE-x70) at 14; C-terminal NH2) [SEQ ID NO: 40]	0.0026
HXQGTFTSDLSKQKESRAAQDFIEWLKAGGPSSGAPPPS (dSer at 2; K(GABA-x53) at 14; C-terminal NH2) [SEQ ID NO: 50]	0.0033
HXQGTFTSDLSKQKESKAAQDFIEWLKAGGPSSGAPPPS (dSer at 2; K(x53) at 14; C-terminal NH2) [SEQ ID NO: 32]	0.0102
HXQGTFTSDLSKQKESRAAQEFIEWLKAGGPSSGAPPPS (dSer at 2; K(γE-x53) at 14; C-terminal NH2) [SEQ ID NO: 47]	0.0022
HXQGTFTSDLSKQKESRAAQDFIEWLKAGGPSSGAPPPS (dSer at 2; K(γE-x53) at 14; C-terminal NH2) [SEQ ID NO: 44]	0.0027
HXQGTFTSDLSKQKESQAAQDFIEWLKAGGPSSGAPPPS (dSer at 2; K(γE-x53) at 14; C-terminal NH2) [SEQ ID NO: 35]	0.0015
HXQGTFTSDLSKQKDSQAAQDFIEWLKAGGPSSGAPPPS (dSer at 2; K(γE-x53) at 14; C-terminal NH2) [SEQ ID NO: 39]	0.0027
HXQGTFTSDLSKQKESRAAQLFIEWLKAGGPSSGAPPPS (dSer at 2; K(γE-x53) at 14; C-terminal NH2) [SEQ ID NO: 48]	0.0059
HXQGTFTSDLSKQKESRAAQDFIEWLKAGGPSSGAPPPS (dSer at 2; K(γE-γE-x53) at 14; C-terminal NH2) [SEQ ID NO: 49]	0.0011
HXQGTFTSDLSKQKESRAAQLFIEWLKAGGPSSGAPPPS (dSer at 2; K(γE-x70) at 14; C-terminal NH2) [SEQ ID NO: 45]	0.0075
HXQGTFTSDLSKQKESKAAQDFIEWLKAGGPSSGAPPPS (dSer at 2; K(γE-x70) at 14; C-terminal NH2) [SEQ ID NO: 26]	0.0051
HXQGTFTSDLSKQKESQAAQDFIEWLKAGGPSSGAPPPS (dSer at 2; K(x53) at 14; C-terminal NH2) [SEQ ID NO: 42]	0.0102
HXQGTFTSDLSKQKESKAAQLFIEWLKAGGPSSGAPPPS (dSer at 2; K(γE-x70) at 14; C-terminal NH2) [SEQ ID NO: 27]	0.0077
HXQGTFTSDLSKQKESQAAQEFIEWLKAGGPSSGAPPPS (dSer at 2; K(γE-x53) at 14; C-terminal NH2) [SEQ ID NO: 37]	0.0015
HXQGTFTSDLSKQKESKAAQEFIEWLKAGGPSSGAPPPS (dSer at 2; K(γE-x53) at 14; C-terminal NH2) [SEQ ID NO: 28]	0.0055
HXQGTFTSDLSKQKESRAAXLFIEWLKAGGPSSGAPPPS (dSer at 2; K(γE-x53) at 14; Aib at 20; C-terminal NH2) [SEQ ID NO: 46]	0.0032
HXQGTFTSDLSKQKESKAAQLFIEWLKAGGPSSGAPPPS (dSer at 2; K(γE-x53) at 14; C-terminal NH2) [SEQ ID NO: 29]	0.0059

Biological target: T2, human glucagon receptor
Test: cell-based or functional assay
Remark: another data set of the same source

Binder	EC50 hGlucagon-R (cAMP) [nM]
H[Aib]QGTFTSDLSKQK([γGlu-x53])DSKAAQDFIEWLKAGGPSSGAPPPS-NH2 (reading uncertain) [SEQ ID NO: 31]	0.0093
H[Aib]QGTFTSDLSKQK(x53)ESQAAQDFIEWLKAGGPSSGAPPPS-NH2 (reading uncertain) [SEQ ID NO: 43]	0.443
H[Aib]QGTFTSDLSKQK(x53)ESRRAQDFIEWLKAGGPSSGAPPPS-NH2 (reading uncertain) [SEQ ID NO: 5]	0.109
H[Aib]QGTFTSDLSKQK([γGlu-x53])ESQAAQEFIEWLKAGGPSSGAPPPS-NH2 (reading uncertain) [SEQ ID NO: 38]	0.0531
H[Aib]QGTFTSDLSKQK([γGlu-x53])ESQAAQDFIEWLKAGGPSSGAPPPS-NH2 (reading uncertain) [SEQ ID NO: 36]	0.0459
H[Aib]QGTFTSDLSKQK([γGlu-x53])ESKAAQDFIEWLKAGGPSSGAPPPS-NH2 (reading uncertain) [SEQ ID NO: 25]	0.0406
H[Aib]QGTFTSDLSKQK([γGlu-x70])ESQAAQDFIEWLKAGGPSSGAPPPS-NH2 (reading uncertain) [SEQ ID NO: 41]	0.0207
H[Aib]QGTFTSDLSKQK(x53)ESKAAQDFIEWLKAGGPSSGAPPPS-NH2 (reading uncertain) [SEQ ID NO: 33]	0.473
HXQGTFTSDLSKQKDSRRAQDFIEWLKNGGPSSGAPPPS (dSer at 2; K(γE-x53) at 14; C-terminal NH2) [SEQ ID NO: 97]	0.001
HXQGTFTSDLSKQKDEQAAQDFIEWLKAGGPSSGAPPPS (dSer at 2; K(γE-x53) at 14; C-terminal NH2) [SEQ ID NO: 34]	0.0067
HXQGTFTSDLSKQKESQAAQDFIEWLKAGGPSSGAPPPS (dSer at 2; K(γE-x70) at 14; C-terminal NH2) [SEQ ID NO: 40]	0.0048
HXQGTFTSDLSKQKESRAAQDFIEWLKAGGPSSGAPPPS (dSer at 2; K(GABA-x53) at 14; C-terminal NH2) [SEQ ID NO: 50]	0.0111
HXQGTFTSDLSKQKESKAAQDFIEWLKAGGPSSGAPPPS (dSer at 2; K(x53) at 14; C-terminal NH2) [SEQ ID NO: 32]	0.188
HXQGTFTSDLSKQKESRAAQEFIEWLKAGGPSSGAPPPS (dSer at 2; K(γE-x53) at 14; C-terminal NH2) [SEQ ID NO: 47]	0.0103
HXQGTFTSDLSKQKESRAAQDFIEWLKAGGPSSGAPPPS (dSer at 2; K(γE-x53) at 14; C-terminal NH2) [SEQ ID NO: 44]	0.012
HXQGTFTSDLSKQKESQAAQDFIEWLKAGGPSSGAPPPS (dSer at 2; K(γE-x53) at 14; C-terminal NH2) [SEQ ID NO: 35]	0.0142
HXQGTFTSDLSKQKDSQAAQDFIEWLKAGGPSSGAPPPS (dSer at 2; K(γE-x53) at 14; C-terminal NH2) [SEQ ID NO: 39]	0.0076
HXQGTFTSDLSKQKESRAAQLFIEWLKAGGPSSGAPPPS (dSer at 2; K(γE-x53) at 14; C-terminal NH2) [SEQ ID NO: 48]	0.0536
HXQGTFTSDLSKQKESRAAQDFIEWLKAGGPSSGAPPPS (dSer at 2; K(γE-γE-x53) at 14; C-terminal NH2) [SEQ ID NO: 49]	0.0029
HXQGTFTSDLSKQKESRAAQLFIEWLKAGGPSSGAPPPS (dSer at 2; K(γE-x70) at 14; C-terminal NH2) [SEQ ID NO: 45]	0.0199
HXQGTFTSDLSKQKESKAAQDFIEWLKAGGPSSGAPPPS (dSer at 2; K(γE-x70) at 14; C-terminal NH2) [SEQ ID NO: 26]	0.0054
HXQGTFTSDLSKQKESQAAQDFIEWLKAGGPSSGAPPPS (dSer at 2; K(x53) at 14; C-terminal NH2) [SEQ ID NO: 42]	0.199
HXQGTFTSDLSKQKESKAAQLFIEWLKAGGPSSGAPPPS (dSer at 2; K(γE-x70) at 14; C-terminal NH2) [SEQ ID NO: 27]	0.0251
HXQGTFTSDLSKQKESQAAQEFIEWLKAGGPSSGAPPPS (dSer at 2; K(γE-x53) at 14; C-terminal NH2) [SEQ ID NO: 37]	0.0129
HXQGTFTSDLSKQKESKAAQEFIEWLKAGGPSSGAPPPS (dSer at 2; K(γE-x53) at 14; C-terminal NH2) [SEQ ID NO: 28]	0.0126
HXQGTFTSDLSKQKESRAAXLFIEWLKAGGPSSGAPPPS (dSer at 2; K(γE-x53) at 14; Aib at 20; C-terminal NH2) [SEQ ID NO: 46]	0.0251
HXQGTFTSDLSKQKESKAAQLFIEWLKAGGPSSGAPPPS (dSer at 2; K(γE-x53) at 14; C-terminal NH2) [SEQ ID NO: 29]	0.0879
